Laboratory results as given in US11497796B2, “Agents directed against a cis RGMa/neogenin interaction or lipid rafts and use of the same in methods of treatment” (UNIVERSITY HEALTH NETWORK, priority 2013, dated 2022).

Molecular target: T1, 4Ig-domain of Neogenin (Gallus gallus, UniProt Q90610)
T1 construct: made in house
T1 sequence (Q90610 1-383): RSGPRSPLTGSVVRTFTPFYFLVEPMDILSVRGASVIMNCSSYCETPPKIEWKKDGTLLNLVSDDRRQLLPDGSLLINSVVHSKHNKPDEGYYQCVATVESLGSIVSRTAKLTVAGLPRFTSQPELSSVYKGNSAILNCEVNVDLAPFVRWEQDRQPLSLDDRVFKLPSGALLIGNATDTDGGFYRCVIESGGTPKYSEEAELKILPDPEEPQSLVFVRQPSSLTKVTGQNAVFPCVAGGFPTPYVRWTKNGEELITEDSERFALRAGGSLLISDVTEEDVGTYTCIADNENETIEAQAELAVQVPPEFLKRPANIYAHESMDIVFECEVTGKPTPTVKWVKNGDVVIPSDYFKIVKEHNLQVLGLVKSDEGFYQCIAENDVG
Experiment: ELISA / AP binding assay of RGMa peptides to Neogenin domains
Settings: ELISA, Neogenin domains fused to AP
Description: Specifically, the 4Ig-domain and 6FNIII-domain of Neogenin were each fused to alkaline phosphatase (AP). The 4Ig-domain and 6FNIII-domain of Neogenin were found in the extracellular portion of Neogenin. Accession No. AAC59662 (SEQ ID NO:1) was the amino acid sequence of Neogenin. The 4Ig-domain was amino acids 1 to 383 of Accession No. AAC59662 (SEQ ID NO:1). The 6FNIII-domain was amino acids 429 to 1036 of Accession No. AAC59662 (SEQ ID NO:1).
The binding of these fusions to various RGMa peptides were analyzed in an ELISA assay (FIG. 2A).
To determine if distinct N-terminal regions of RGMa bound the 4Ig- and 6FNIII-domains of Neogenin, peptides were generated that spanned the N-terminal region of RGMa. The amino acid sequence of RGMa was Accession No. NP_989868.1 (SEQ ID NO:6). These peptides were a peptide spanning amino acids 28-73 of RGMa (also referred to herein as “N-Raft”) and a peptide spanning amino acids 77-113 of RGMa (also referred to herein as “N-inh”). […] In a complementary experiment, in which the N-Raft and N-inh peptides of RGMa were fused with AP instead of the 4Ig- and 6FNIII-domains of Neogenin, N-Raft bound to the 4Ig-domain and not the 6FNIII-domain while N-inh bound to the 6FNIII-domain and not the 4Ig-domain (FIG. 9). Additionally, N-inh and N-Raft coated beads pulled down 6FNIII-domain and 4Ig-domain, respectively, which was consistent with the ELISA results described above (FIG. 2B).
The assay was conducted in a 96-well microtiter plate (Corning Incorporated). The wells were coated with 100 μl (10 μg/mL) of Poly-L-Lysine at 4° C. overnight. Wells were then washed three times with 100 μl of PB ST (+0.02% Tween).
50 μl (2.5 μg/mL) of His-tagged: Full-length Neogenin; the 4Ig-domain of Neogenin; and 6FNIII-domain of Neogenin were coated onto each well for 1 hour at 37° C. Following three washes of 100 μl PBST, each well was then blocked with 300 μl of 3% BSA in PBST for 1 hour at 37° C.
50 μl (1.0 μg/mL) AP-tagged: N-RGMa (28-73); N-RGMa (28-54); N-RGMa (40-62); N-RGMa (54-73); N-RGMa (54-62) in 1% BSA+PBST was then added to each well and incubated at 37° C. for 1 hour. Each well was washed thoroughly three times with 100 μl PBST followed by subsequent equilibration of each well with Alkaline Phosphatase (AP) developing buffer (100 mM NaHCO3, 1 mM MgCl2). The reaction was developed using AP developing buffer supplemented with, p-nitrophenyl phosphate (pNPP) (Sigma-Aldrich) and allowed to develop until color development. The reaction was stopped with the addition of 50 μl (0.1M) NaOH. The absorbance of each reaction was measured using a microplate autoreader (BIO-TEK Instruments Inc.) at 405 nanometers (nm) wavelength.

## N-Raft: peptide spanning amino acids 28-73 of RGMa (SEQ ID NO:2) (SPCKILKCNSEFWAATSGSHHLGAEETPEFCTALRAYAHCTRRTAR; N-Raft - amino acids 28-73 of RGMa)
  interaction with the 4Ig-domain of Neogenin: interacted
